Series [1] can be described thus: water/1-octanol partition coefficients (logD) of 68Ga-labeled compounds, γ-counting. In kind it is physicochemical. To be noted: pH 7.4. The method, then:
The mixtures were vigorously shaken for 5 min on a vibrating plate. After subsequent centrifugation at 13,000 rpm for 5 min, 125 µL was taken from each phase and measured in a γ-counter. The logD values were calculated from three or four independent experiments, each performed in triplicate. For 18, the logD was determined by semipreparative HPLC. For this purpose, a solution of 18 (10 µL, c = 5 × 10^−4 mol/L) in water was added to a mixture of 1 mL 1-octanol and 990 µL phosphate buffered solution (0.05 M, pH 7.4) and vigorously shaken for 5 min. After centrifugation, the phases were separated and both phases were analyzed by semipreparative HPLC and the peaks of the UV signals at 214 nm were integrated. The logD was determined by three separate measurements, each experiment performed in triplicate.

Series [2] can be described thus: photophysical properties (absorbance and emission measurements). In kind it is physicochemical. The following applies: for λmax(em): excitation wavelength λex = 650 nm. As to the method:
Finally, the photophysical properties were determined for dyes, MIS and their conjugates. It could be shown that the photophysical properties remained largely unaltered, including absorption coefficients and emission characteristics (Table 1). […] The only change in photophysical properties we qualitatively observed was an increase in the quantum yields of the dye conjugates compared to their unconjugated leads 1–3, an effect that was described before and can be attributed to the conjugation of sterically demanding groups (such as the PESIN homodimers used here), resulting in a decrease in aggregation of the dye molecules and thus a reduced fluorescence quenching. γ-Counting was performed using a 2480 Wizard gamma counter system from Perkin Elmer. A Cary 100 Bio system (Varian) was used to record the UV/Vis-Spectra together with 4 mL PMMA cuvettes from Sigma-Aldrich. Furthermore, for absorbance and emission measurements, a Tecan Infinite M200 Microplate reader together with a Nunc Micro-Well 96 solid plate from ThermoFisher was used.

Consider twelve compounds from publication PMC7558102, “Hybrid Multimodal Imaging Synthons for Chemoselective and Efficient Biomolecule Modification with Chelator and Near-Infrared Fluorescent Cyanine Dye” (Pharmaceuticals, 2020).

Like-named read-outs stand apart in the source and are kept apart here.

`CC1(C)C(/C=C/C2=C(c3ccc(C(=O)NCCCC[C@H](NC(=O)CC[C@H](C(=O)O)N4CCN(CC(=O)O)CCN(CC(=O)O)CC4)C(=O)N[C@@H](CS)C(N)=O)cc3)C(=C/C=C3/N(CCCCS(=O)(=O)[O-])c4ccc5ccccc5c4C3(C)C)/CCC2)=[N+](CCCCS(=O)(=O)O)c2ccc3ccccc3c21` (single isomer, unassigned) [[68Ga]Ga-10, metal not drawn] showed a logD in series [1] of -1.29 ± 0.11.

Take `CC1(C)C(=CC=C2CCCC(C=CC3=[N+](CCCCS(=O)(=O)[O-])c4ccc(C(=O)NCCCC[C@H](NC(=O)CC[C@H](C(=O)O)N5CCN(CC(=O)O)CCN(CC(=O)O)CC5)C(=O)N[C@@H](CS)C(N)=O)cc4C3(C)C)=C2c2ccccc2)N(CCCCS(=O)(=O)O)c2ccc(S(=O)(=O)O)cc21` (single isomer, unassigned) [[68Ga]Ga-11, metal not drawn]: the logD in series [1] is -3.05 ± 0.08.

In series [1], `CC1(C)C(=CC=C2CCCC(C=CC3=[N+](CCCCS(=O)(=O)[O-])c4ccc(S(=O)(=O)O)cc4C3(C)C)=C2c2ccc(CCC(=O)NCCCC[C@H](NC(=O)CC[C@H](C(=O)O)N3CCN(CC(=O)O)CCN(CC(=O)O)CC3)C(=O)N[C@@H](CS)C(N)=O)cc2)N(CCCCS(=O)(=O)O)c2ccc(S(=O)(=O)O)cc21` (single isomer, unassigned) [[68Ga]Ga-12, metal not drawn] displayed a log distribution coefficient (logD) of -3.47 ± 0.17.

Compound `CC1(C)C(/C=C/C2=C(c3ccc(C(=O)NCCCC[C@H](NC(=O)CC[C@H](C(=O)O)N4CCN(CC(=O)O)CCN(CC(=O)O)CC4)C(=O)N[C@@H](CS)C(N)=O)cc3)C(=C/C=C3/N(CCCCS(=O)(=O)[O-])c4ccc5ccccc5c4C3(C)C)/CCC2)=[N+](CCCCS(=O)(=O)O)c2ccc3ccccc3c21` [Compound 10] had a logD in series [1] of −1.29 ± 0.11.

Turning to `CC1(C)C(=CC=C2CCCC(C=CC3=[N+](CCCCS(=O)(=O)[O-])c4ccc(C(=O)NCCCC[C@H](NC(=O)CC[C@H](C(=O)O)N5CCN(CC(=O)O)CCN(CC(=O)O)CC5)C(=O)N[C@@H](CS)C(N)=O)cc4C3(C)C)=C2c2ccccc2)N(CCCCS(=O)(=O)O)c2ccc(S(=O)(=O)O)cc21` [Compound 11], the logD in series [1] was −3.05 ± 0.08.

On to `CC1(C)C(=CC=C2CCCC(C=CC3=[N+](CCCCS(=O)(=O)[O-])c4ccc(S(=O)(=O)O)cc4C3(C)C)=C2c2ccc(CCC(=O)NCCCC[C@H](NC(=O)CC[C@H](C(=O)O)N3CCN(CC(=O)O)CCN(CC(=O)O)CC3)C(=O)N[C@@H](CS)C(N)=O)cc2)N(CCCCS(=O)(=O)O)c2ccc(S(=O)(=O)O)cc21` [Compound 12], for which, in series [1], the logD was −3.47 ± 0.17.

For the compound `CSCC[C@H](NC(=O)[C@H](CC(C)C)NC(=O)[C@H](Cc1c[nH]cn1)NC(=O)CNC(=O)[C@@H](NC(=O)[C@H](C)NC(=O)[C@H](Cc1c[nH]c2ccccc12)NC(=O)[C@H](CCC(N)=O)NC(=O)CCOCCOCCOCCOCCNC(=O)CON=Cc1ccc(C(=O)NCCCN(CCCNC(=O)c2ccc(C=NOCC(=O)NCCOCCOCCOCCOCCC(=O)N[C@@H](CCC(N)=O)C(=O)N[C@@H](Cc3c[nH]c4ccccc34)C(=O)N[C@@H](C)C(=O)N[C@H](C(=O)NCC(=O)N[C@@H](Cc3c[nH]cn3)C(=O)N[C@@H](CC(C)C)C(=O)N[C@@H](CCSC)C(N)=O)C(C)C)cc2)CC(=O)N[C@H](CSC2CC(=O)N(CCN3C(=O)CC(SC[C@H](NC(=O)[C@H](CCCCNC(=O)c4ccc(C5=C(C=CC6=[N+](CCCCS(=O)(=O)[O-])c7ccc8ccccc8c7C6(C)C)CCCC5=CC=C5N(CCCCS(=O)(=O)O)c6ccc7ccccc7c6C5(C)C)cc4)NC(=O)CC[C@H](C(=O)O)N4CCN(CC(=O)O)CCN(CC(=O)O)CC4)C(N)=O)C3=O)C2=O)C(=O)NCCOCCOCC(N)=O)cc1)C(C)C)C(N)=O` (stereo partly drawn) [Compound 14], in series [2], the “Stokes Shift” value is 10 nm, the “λmax(abs)” value was 735/810 and the “λmax(em)” value worked out at 820 nm.

As for `CSCC[C@H](NC(=O)[C@H](CC(C)C)NC(=O)[C@H](Cc1c[nH]cn1)NC(=O)CNC(=O)[C@@H](NC(=O)[C@H](C)NC(=O)[C@H](Cc1c[nH]c2ccccc12)NC(=O)[C@H](CCC(N)=O)NC(=O)CCOCCOCCOCCOCCNC(=O)CON=Cc1ccc(C(=O)NCCCN(CCCNC(=O)c2ccc(C=NOCC(=O)NCCOCCOCCOCCOCCC(=O)N[C@@H](CCC(N)=O)C(=O)N[C@@H](Cc3c[nH]c4ccccc34)C(=O)N[C@@H](C)C(=O)N[C@H](C(=O)NCC(=O)N[C@@H](Cc3c[nH]cn3)C(=O)N[C@@H](CC(C)C)C(=O)N[C@@H](CCSC)C(N)=O)C(C)C)cc2)CC(=O)N[C@H](CSC2CC(=O)N(CCN3C(=O)CC(SC[C@H](NC(=O)[C@H](CCCCNC(=O)c4ccc5c(c4)C(C)(C)C(C=CC4=C(c6ccccc6)C(=CC=C6N(CCCCS(=O)(=O)O)c7ccc(S(=O)(=O)O)cc7C6(C)C)CCC4)=[N+]5CCCCS(=O)(=O)[O-])NC(=O)CC[C@H](C(=O)O)N4CCN(CC(=O)O)CCN(CC(=O)O)CC4)C(N)=O)C3=O)C2=O)C(=O)NCCOCCOCC(N)=O)cc1)C(C)C)C(N)=O` (stereo partly drawn) [Compound 15], in series [2], the “Stokes Shift” value is 30 nm, the “λmax(abs)” value is 705/770 and the “λmax(em)” value stood at 800 nm.

Turning to `CSCC[C@H](NC(=O)[C@H](CC(C)C)NC(=O)[C@H](Cc1c[nH]cn1)NC(=O)CNC(=O)[C@@H](NC(=O)[C@H](C)NC(=O)[C@H](Cc1c[nH]c2ccccc12)NC(=O)[C@H](CCC(N)=O)NC(=O)CCOCCOCCOCCOCCNC(=O)CON=Cc1ccc(C(=O)NCCCN(CCCNC(=O)c2ccc(C=NOCC(=O)NCCOCCOCCOCCOCCC(=O)N[C@@H](CCC(N)=O)C(=O)N[C@@H](Cc3c[nH]c4ccccc34)C(=O)N[C@@H](C)C(=O)N[C@H](C(=O)NCC(=O)N[C@@H](Cc3c[nH]cn3)C(=O)N[C@@H](CC(C)C)C(=O)N[C@@H](CCSC)C(N)=O)C(C)C)cc2)CC(=O)N[C@H](CSC2CC(=O)N(CCN3C(=O)CC(SC[C@H](NC(=O)[C@H](CCCCNC(=O)CCc4ccc(C5=C(C=CC6=[N+](CCCCS(=O)(=O)[O-])c7ccc(S(=O)(=O)O)cc7C6(C)C)CCCC5=CC=C5N(CCCCS(=O)(=O)O)c6ccc(S(=O)(=O)O)cc6C5(C)C)cc4)NC(=O)CC[C@H](C(=O)O)N4CCN(CC(=O)O)CCN(CC(=O)O)CC4)C(N)=O)C3=O)C2=O)C(=O)NCCOCCOCC(N)=O)cc1)C(C)C)C(N)=O` (stereo partly drawn) [Compound 16], in series [2], the “Stokes Shift” value worked out at 20 nm, the “λmax(abs)” value was 700/770 and the “λmax(em)” value amounted to 790 nm.

For `NC(=O)C(CS)NC(=O)CNC(=O)CCC(C(=O)O)N1CCN(CC(=O)O)CCN(CC(=O)O)CC1` (stereo not drawn) [Compound 19, NH2-Cys-Gly-NODA-GA], in series [1] (68Ga-labeled compound, 1-octanol / phosphate buffer 0.05 M, read-out: logD), the logD is -3.35 ± 0.15.

The compound `CSCC[C@H](NC(=O)[C@H](CC(C)C)NC(=O)[C@H](Cc1c[nH]cn1)NC(=O)CNC(=O)[C@@H](NC(=O)[C@H](C)NC(=O)[C@H](Cc1c[nH]c2ccccc12)NC(=O)[C@H](CCC(N)=O)NC(=O)CCOCCOCCOCCOCCNC(=O)CON=Cc1ccc(C(=O)NCCCN(CCCNC(=O)c2ccc(C=NOCC(=O)NCCOCCOCCOCCOCCC(=O)N[C@@H](CCC(N)=O)C(=O)N[C@@H](Cc3c[nH]c4ccccc34)C(=O)N[C@@H](C)C(=O)N[C@H](C(=O)NCC(=O)N[C@@H](Cc3c[nH]cn3)C(=O)N[C@@H](CC(C)C)C(=O)N[C@@H](CCSC)C(N)=O)C(C)C)cc2)CC(=O)N[C@H](CSC2CC(=O)N(CCN3C(=O)CC(SC[C@H](NC(=O)[C@H](CCCCNC(=O)c4ccc(C5=C(C=CC6=[N+](CCCCS(=O)(=O)[O-])c7ccc8ccccc8c7C6(C)C)CCCC5=CC=C5N(CCCCS(=O)(=O)O)c6ccc7ccccc7c6C5(C)C)cc4)NC(=O)CC[C@H](C(=O)O)N4CCN(CC(=O)O)CCN(CC(=O)O)CC4)C(N)=O)C3=O)C2=O)C(=O)NCCOCCOCC(N)=O)cc1)C(C)C)C(N)=O` (stereo partly drawn) [[68Ga]Ga-14, metal not drawn] came in with a logD in series [1] of -1.33 ± 0.04.

Regarding `CSCC[C@H](NC(=O)[C@H](CC(C)C)NC(=O)[C@H](Cc1c[nH]cn1)NC(=O)CNC(=O)[C@@H](NC(=O)[C@H](C)NC(=O)[C@H](Cc1c[nH]c2ccccc12)NC(=O)[C@H](CCC(N)=O)NC(=O)CCOCCOCCOCCOCCNC(=O)CON=Cc1ccc(C(=O)NCCCN(CCCNC(=O)c2ccc(C=NOCC(=O)NCCOCCOCCOCCOCCC(=O)N[C@@H](CCC(N)=O)C(=O)N[C@@H](Cc3c[nH]c4ccccc34)C(=O)N[C@@H](C)C(=O)N[C@H](C(=O)NCC(=O)N[C@@H](Cc3c[nH]cn3)C(=O)N[C@@H](CC(C)C)C(=O)N[C@@H](CCSC)C(N)=O)C(C)C)cc2)CC(=O)N[C@H](CSC2CC(=O)N(CCN3C(=O)CC(SC[C@H](NC(=O)[C@H](CCCCNC(=O)c4ccc5c(c4)C(C)(C)C(C=CC4=C(c6ccccc6)C(=CC=C6N(CCCCS(=O)(=O)O)c7ccc(S(=O)(=O)O)cc7C6(C)C)CCC4)=[N+]5CCCCS(=O)(=O)[O-])NC(=O)CC[C@H](C(=O)O)N4CCN(CC(=O)O)CCN(CC(=O)O)CC4)C(N)=O)C3=O)C2=O)C(=O)NCCOCCOCC(N)=O)cc1)C(C)C)C(N)=O` (stereo partly drawn) [[68Ga]Ga-15, metal not drawn], the logD in series [1] is -2.48 ± 0.14.

The term logD denotes the decadic logarithm of the distribution of all forms, ionised or not, between an organic phase and buffer at a given pH.
